Assay results reported in the DeepSol protein solubility set.

Assay: soluble on expression in E. coli; label from the status in PepcDB or PDB records
In the case of “IEETGTVIIAGIGRFGQIVNRLLVSNGVTTVVLDHQANQVDNMRQIGTRAYFGDATRPDMLHTAGIEHAAALVVAIDNQESSVELVKYVKHTYPKVKIIARAFDRGHGYLLRQAGADVIESETYHSALEMGGHAMKALGI”, the “soluble on expression in E. coli” value is reported as “not soluble”.
With “IIAWLGPQLRELTPVDTNKDPKTRLQEFLQSRGCDLPRYEVVDIQGEPHCRTFFVDCEVALLSDKTHGHGGSRRIAEQVAAAAALVALGVENGHD” the “soluble on expression in E. coli” value was “not soluble”.
For “IKATYETFSSPNGHGEGRGYLVMPQKKTIKSPTVLVIHENRGLNPYIKDVARRLAKDGFIAFAPDALYPLGGYPGNDDEGRAMQKEMDRAKIEQDFIAAAKFIKQHEHGNGK”, the “soluble on expression in E. coli” value was “not soluble”.
With “INFPILDEPLVLSNATILTIEDVSVYSSLVKHFYQYDVDEHLKLFDDKQKSLKATELMLVTDILGYDVNSAPILKLIHGDLENQFNEKPEVKSMVEKLAATITELIAFECLENELDLEYDEIKILELIKALGVKIETQSDTIFEKCFEIIQVYHYLTKKNLLVFVNSGAYLTKDEVIKLCEYINLMQKSVLFLEPRRLYDLPQYVIDKDYFLIGEN” the “soluble on expression in E. coli” value was “not soluble”.
In the case of “IRRNETTEADKQIPHYEREIIYQVLYDMKKEIADLKGMMNRLAHHEQPSWPVGSDVWGNDDKRTADPKWGVSTHKAPIANAAEPVEPIQEASEYTEDPVSLEEVEKKMISLALERHGGRRKQTAEELKISERTLYRKIKEYGLE”, the “soluble on expression in E. coli” value is reported as “not soluble”.
For “IRSFATHAQLPISIVNREDDAFLNPNFRFIDHSIIGKNVPVADQSFRVGCSCASDEECMYSTCQCLDEMAPDSDEEADPYTRKKRFAYYSQGAKKGLLRDRVLQSQEPIYECHQGCACSKDCPNRVVERGRTVPLQIFRTKDRGWGVKCPVNIKRGQFVDRYLGEIITSEEADRRRAESTIARRKDVYLFALDKFSDPDSLDPLLAGQPLEVDGEYMSGPTRFINHSCDPNMAIFARVGDHADKHIHDLALFAIKDIPKGTELTFDYVNGLTGLESDAHDPSKISEMTKCLCGTAKCRGYLW”, the “soluble on expression in E. coli” value was “soluble”.
With “ISDTLNIQRKKIILYAPTFRDYNMQSIQLPFTEEQLIHQLKEEYVLFVKLHPAIQNNIDIKYSSDYIKDVSNYALFDLLMAADILITDYSSVPFEFSILNKPILFYTYDLKLYQQKRGLVDNYLSIIPGRACYDSESLINEIQTPFNYSKIKVFSDRWNKYSDGNSSQNLLNFIEN” the “soluble on expression in E. coli” value was “not soluble”.
With “ISEFGSMNVILSIDQSTQSTKVFFYDEELNIVHSNNLNHEQKCLKPGWYEHDPIEIMTNLYNLMNEGIKVLKDKYTSVIIKCIGITNQRETVIIWDRITGKPLYNAIVWLDTRVEELVTEFSAKYNNNDIQKKTGTYFNTYFSAFKILWLIQNNPEIKQKIDDGTAVIGNINTWLIFNLTKGNCYTDVTNASRTLLMDINTLQWDEKMCKIFNITNMSVLPEIKSNCSNFGLVKSEHVPDYLNIPITGCIGDQQSACIGQAIFDEGEAKCTYGTGVFLLINTGEKVVYSTCGLITTICYKFNDNDKPKYALEGSIGTAGSGVSWLLKNKLIDDPSEASDIMEKCENTTGVIFVPAFSGLYAPRWRSDARASIYGMTFNTERSHIVRALLEGIAFQLNEIVDSLTSDMGIEMLHVLRCDGGMTKNKPFMQFNSDIINTKIEVSKYKEVTSLGAAVLAGLEVKIWDSLDSVKSLLRRSDAVFHSKMDDKKRKKKTSEWNKAVERTLIQL” the “soluble on expression in E. coli” value was “soluble”.
With “ISLKYTAARLHEKGVLLEIEDLQVNQFKNVIFEISPTEEVGDFEVKAKFMGVQMETFMLHYQDLLQLQYEGVAVMKLFDRAKVNVNLLIFLLNKKFYGK” the “soluble on expression in E. coli” value was “soluble”.
With “IVGGYNCKDGEVPWQALLINEENEGFCGGTILSEFYILTAAHCLYQAKRFKVRVGDRNTEQEEGGEAVHEVEVVIKHNRFTKETYDFDIAVLRLKTPITFRMNVAPASLPTAPPATGTKCLISGWGNTASSGADYPDELQCLDAPVLSQAKCEASYPGKITSNMFCVGFLEGGKDSCQGDSGGPVVCNGQLQGVVSWGDGCAQKNKPGVYTKVYNYVKWIKNTIAANS” the “soluble on expression in E. coli” value was “soluble”.
With “KAGSAAAPFTKPFAVYKNVKFYLGDISHLVNCVSFDFVVNAANENLLHGGGVARAIDILTEGQLQSLSKDYISSNGPLKVGAGVMLECEKFNVFNVVGPRTGKHEHSLLVEAYNSILFENGIPLMPLLSCGIFGVRIENSLKALFSCDINKPLQVFVYSSNEEQAVLKFLDGLD” the “soluble on expression in E. coli” value was “soluble”.
In the case of “KALEEMHIPVDIITGTSMGAYVGGLYATGMSADEIESFIYSVDWNSGYRDRVDRSQRRVRDKEYEDRYQITTDLGLRFGEVRAPTGVVQGQNMLRVLRETTGNLGRFDSFDELAIPYRSVATDILELDEVVIGNGYLVDAMMASMSVPGALPPYKLNGHMLVDGGVVNNMPVDVARAMGADVVIAVDISTDYKTEDDFTGLFTVADQLSNYLVRRSTQQQVETLQEHDVYIRPNVGQMETVEFDKMPWAFQSGYDITREMESKLAGLRLSNAEYQKYIDHKQEVRKKLVYGDDRVVDEIVIVNNTHYS”, the “soluble on expression in E. coli” value is reported as “not soluble”.
For “KAQKLNEQHQLILSKLLREEDNKYCADCEAKGPRWASWNIGVFICIRCAGIHRNLGVHISRVKSVNLDQWTAEQIQCMQDMGNTKARLLYEANLPENFRRPQTDQAVEFFIRDKYEKKKYYDKNAIAI”, the “soluble on expression in E. coli” value was “soluble”.
For “KEATWVTDKPLTLKIHMHFRDKWVWDENWPVAKESFRLTNVKLQSVANKAATNSQEQFNLMMASGDLPDVVGGDNLKDKFIQYGQEGAFVPLNKLIDQYAPHIKAFFKSHPEVERAIKAPDGNIYFIPYVPDGVVARGYFIREDWLKKLNLKPPQNIDELYTVLKAFKEKDPNGNGKADEVPFIDRHPDEVFRLVNFWGARSSGSDNYMDFYIDNGRVKHPWAETAFRDGMKHVAQWYKEGLIDKEIFTRKAKAREQMFGGNLGGFTHDWFASTMTFNEGLAKTVPGFKLIPIAPPTNSKGQRWEEDSRQKVRPDGWAITVKNKNPVETIKFFDFYFSRPGRDISNFGVPGVTYDIKNGKAVFKDSVLKSPQPVNNQLYDMGAQIPIGFWQDYDYERQWTTPEAQAGIDMYVKGKYVMPGFEGVNMTREERAIYDKYWADVRTYMYEMGQAWVMGTKDVDKTWDEYQRQLKLRGLYQVLQMMQQAYDRQYKN”, the “soluble on expression in E. coli” value was “soluble”.
With “KERERLEEKLEDANERIAELVKLEERQRIARDLHDTLGQKLSLIGLKSDLARKLIYKDPEQAARELKSVQQTARTSLNEVRKIVSSMKGIRLKDELINIKQILEAADIMFIYEEEKWPENISLLNENILSMCLKEAVTNVVKHSQAKTCRVDIQQLWKEVVITVSDDGTFKGEENSFSKGHGLLGMRERLEFANGSLHIDTENGTKLTMAIPNNSK” the “soluble on expression in E. coli” value was “not soluble”.
With “KESCKMFIGGLNWDTTEDNLREYFGKYGTVTDLKIMKDPATGRSRGFGFLSFEKPSSVDEVVKTQHILDGKVIDPKRAIPRDEQDKTGKIFVGGIGPDVRPKEFEEFFSQWGTIIDAQLMLDKDTGQSRGFGFVTYDSADAVDRVCQNKFIDFKDRKIEIKRAEPRH” the “soluble on expression in E. coli” value was “soluble”.
For “KGKSFIWIKRQLDPKVAEEVKALGLENFVFEKELKRHYPMGNLFAHVIGFTDIDGKGQEGLELSLEDSLHGEDGAEVVLRDRQGNIVDSLDSPRNKAPKNGKDIILSLD”, the “soluble on expression in E. coli” value was “not soluble”.
In the case of “KGLMSKVKVITRGEATRLINKEDAVVVDLRQRDDFRKGHIAGAINLLPSDIKANNVGELEKHKSQPIIVVDGSGMQAQEPASALNKAGFEKVFVLKEGIAGWSGENLPLVRGK”, the “soluble on expression in E. coli” value is reported as “not soluble”.
In the case of “KHGPLHPIPNRPVLTRARASLPLVLYIDRFLGGVFSKRRIPKRTQFGPVEGPLVRGSELKDCYIHLKVSLDKGDRKERDLHEDLWFELSDETLCNWMMFVRPAQNHLEQNLVAYQYGHHVYYTTIKNVEPKQELKVWYAASYAEFVNQKIHD”, the “soluble on expression in E. coli” value is reported as “soluble”.
With “KHSCIAVIDAGSTGSRLHIYSYDTDDTNTPIHIEEIWNKKIKPGFASIQPNSVTIDAYLTMLLADAPIHNIPVYFYATAGMRLLPQSQQKKYYDELEYWFRQQSQWQLVEAKTITGNDEALFDWLAVNYKLDTLKSVQNKSVGVMDMGGASVQIVFPMPKNAEISKHNQVELNIYGQNINLYVHSFLGLGQTEMSHQFLNSPSCFANDYPLPDGESGQGNAPSCKEEVTSLMNSVHKVNQQIQPLLALNPVNEWYSIGGISNLASSQLFHFENSELTNQSLLQQGDNQICHQQWDILNGQYPDDEYLYQYCLLSSYYYALMVDGYGINPNQTIHYIPPEQNLDWTIGVVLHRA” the “soluble on expression in E. coli” value was “soluble”.
